Results as given in article PMC10397247.

What was measured:
O4-AA = biological target: T1, O4-AA; test: two-hybrid library CCmax;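 also: natural log of median RNA to DNA barcode read ratio; higher means stronger binding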
T1 chain: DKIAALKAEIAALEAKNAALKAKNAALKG

O5-AA = biological target: T2, O5-AA; test: two-hybrid library CCmax; conditions: mean of both orientations;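 also: natural log of median RNA to DNA barcode read ratio; higher means stronger binding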
T2 chain: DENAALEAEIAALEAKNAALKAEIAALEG

O6-AA = biological target: T3, O6-AA; test: two-hybrid library CCmax; conditions: mean of both orientations;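 also: natural log of median RNA to DNA barcode read ratio; higher means stronger binding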
T3 chain: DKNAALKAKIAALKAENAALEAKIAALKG

O7-AA = biological target: T4, O7-AA; test: two-hybrid library CCmax; conditions: mean of both orientations;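 also: natural log of median RNA to DNA barcode read ratio; higher means stronger binding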
T4 chain: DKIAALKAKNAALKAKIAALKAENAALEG

O8-AA = biological target: T5, O8-AA; test: two-hybrid library CCmax; conditions: mean of both orientations;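 also: natural log of median RNA to DNA barcode read ratio; higher means stronger binding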
T5 chain: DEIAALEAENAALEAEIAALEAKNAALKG

P10-AA = biological target: T6, P10-AA; test: two-hybrid library CCmax; conditions: mean of both orientations;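 also: natural log of median RNA to DNA barcode read ratio; higher means stronger binding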
T6 chain: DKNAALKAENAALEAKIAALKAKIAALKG

P9-AA = biological target: T7, P9-AA; test: two-hybrid library CCmax; conditions: mean of both orientations
T7 chain: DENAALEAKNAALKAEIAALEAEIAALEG

4H2697-bN = biological target: T8, 4H2697-bN; test: two-hybrid library CCNG1
T8 chain: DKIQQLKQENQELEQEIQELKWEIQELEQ

4H3189-bN = biological target: T9, 4H3189-bN; test: two-hybrid library CCNG1
T9 chain: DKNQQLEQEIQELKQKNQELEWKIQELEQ

4H331-bN = biological target: T10, 4H331-bN; test: two-hybrid library CCNG1
T10 chain: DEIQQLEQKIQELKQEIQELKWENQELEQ

4H3606-bN = biological target: T11, 4H3606-bN; test: two-hybrid library CCNG1
T11 chain: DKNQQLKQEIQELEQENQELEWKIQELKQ

4H370-bN = biological target: T12, 4H370-bN; test: two-hybrid library CCNG1
T12 chain: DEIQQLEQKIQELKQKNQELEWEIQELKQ

4H3782-bN = biological target: T13, 4H3782-bN; test: two-hybrid library CCNG1
T13 chain: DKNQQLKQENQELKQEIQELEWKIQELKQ

4H3843-bN = biological target: T14, 4H3843-bN; test: two-hybrid library CCNG1
T14 chain: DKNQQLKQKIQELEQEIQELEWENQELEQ

4H4001-bN = biological target: T15, 4H4001-bN; test: two-hybrid library CCNG1
T15 chain: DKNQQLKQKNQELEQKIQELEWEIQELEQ

4H462-bN = biological target: T16, 4H462-bN; test: two-hybrid library CCNG1
T16 chain: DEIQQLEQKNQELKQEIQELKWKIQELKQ

4H568-bN = biological target: T17, 4H568-bN; test: two-hybrid library CCNG1
T17 chain: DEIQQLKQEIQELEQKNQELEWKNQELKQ

4H607-bN = biological target: T18, 4H607-bN; test: two-hybrid library CCNG1
T18 chain: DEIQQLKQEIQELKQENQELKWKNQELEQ

4H687-bN = biological target: T19, 4H687-bN; test: two-hybrid library CCNG1
T19 chain: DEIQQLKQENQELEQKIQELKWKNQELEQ

4H72-bN = biological target: T20, 4H72-bN; test: two-hybrid library CCNG1
T20 chain: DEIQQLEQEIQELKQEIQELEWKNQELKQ

4H797-bN = biological target: T21, 4H797-bN; test: two-hybrid library CCNG1
T21 chain: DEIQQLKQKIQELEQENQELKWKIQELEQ

4H883-bN = biological target: T22, 4H883-bN; test: two-hybrid library CCNG1
T22 chain: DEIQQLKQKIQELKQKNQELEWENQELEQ

4H918-bN = biological target: T23, 4H918-bN; test: two-hybrid library CCNG1
T23 chain: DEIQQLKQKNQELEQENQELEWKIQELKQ

4H953-bN = biological target: T24, 4H953-bN; test: two-hybrid library CCNG1
T24 chain: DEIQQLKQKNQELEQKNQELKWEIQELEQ

4H967-bN = biological target: T25, 4H967-bN; test: two-hybrid library CCNG1
T25 chain: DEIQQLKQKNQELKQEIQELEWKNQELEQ

Question: What does the source list for DKIAALKAEIAALEAKNAALKAKNAALKG [O4-AA]?
Answer: interaction score (O4-AA): -1.05; interaction score (O5-AA): -0.641; interaction score (O6-AA): -0.0762; interaction score (O7-AA): -1.28; interaction score (O8-AA): -0.637; interaction score (P10-AA): -0.869; interaction score (P9-AA): -1.16

Question: DKIQQLKQENQELEQEIQELKWEIQELEQ [4H2697-bN] was tested. Which interaction score (4H2697-bN) did it give?
Answer: -0.736

Question: What about the interaction score (4H3189-bN) of the same binder?
Answer: -1.43

Question: And the interaction score (4H331-bN)?
Answer: -0.941

Question: What about the interaction score (4H3606-bN) of the same binder?
Answer: -0.924

Question: What about the interaction score (4H370-bN) of the same binder?
Answer: -0.695

Question: What about the interaction score (4H3782-bN) of the same binder?
Answer: -1.03

Question: And the interaction score (4H3843-bN)?
Answer: -0.916

Question: And the interaction score (4H4001-bN)?
Answer: -0.819

Question: What about the interaction score (4H462-bN) of the same binder?
Answer: 1.31

Question: What about the interaction score (4H568-bN) of the same binder?
Answer: -1.07

Question: And the interaction score (4H607-bN)?
Answer: -1.63

Question: What about the interaction score (4H687-bN) of the same binder?
Answer: -1.12

Question: And the interaction score (4H72-bN)?
Answer: -1.14

Question: What about the interaction score (4H797-bN) of the same binder?
Answer: -0.83

Question: What about the interaction score (4H883-bN) of the same binder?
Answer: -0.654

Question: And the interaction score (4H918-bN)?
Answer: -1.97

Question: And the interaction score (4H953-bN)?
Answer: -0.808

Question: And the interaction score (4H967-bN)?
Answer: -1.15
